# Results as given in patent publication US20160272995A1, “MANIPULATION OF PLASMODESMAL CONNECTIVITY TO IMPROVE PLANT YIELD AND FITNESS” (UNIVERSITY OF DELAWARE, priority 2013, published 2016).
# Values joined by “and” are separate entries in the source; they are usually repeats but may differ in a detail not shown here. Equal values may be shown once.
# B1: PDLP5OE: Wild-type A. thaliana PDLP5 protein (SEQ ID NO:4) constitutively overexpressed in plants under the 35S promoter (protein, listed as Arabidopsis thaliana)
# chain: MIKTKTTSLLCFLLTAVILMNPSSSSPTDNYIYAVCSPAKFSPSSGYETNLNSLLSSFVTSTAQTRYANFTVPTGKPEPTVTVYGIYQCRGDLDPTACSTCVSSAVAQVGALCSNSYSGFLQMENCLIRYDNKSFLGVQDKTLILNKCGQPMEFNDQDALTKASDVIGSLGTGDGSYRTGGNGNVQGVAQCSGDLSTSQCQDCLSDAIGRLKSDCGMAQGGYVYLSKCYARFSVGGSHARQTPGPNFGHEGEKGNKDDNGVGKTLAIIIGIVTLIILLVVFLAFVGKCCRKLQDEKWCK
# Columns and labels:
# [1] = Arabidopsis plants; cited from earlier work
# [2] = test system: lateral root primordia (LRP); assay: LRP progression after gravitropic stimulus; type: in vivo, Arabidopsis thaliana; conditions: by 48 hpg
# Description: (A) Lateral root development in wild type (WT) plants, plants having a severe knock down of PDLP5 (pdlp5-1), and plants overexpressing PDLP5 (PDLPOE) expressing DR5:GUS. Arrowheads indicate tertiary roots. (B) Quantification of total lateral root numbers (both emerged and unemerged secondary [2°], tertiary [3°], and quaternary [4°] roots). n≧30 per seedling set. Bars, standard deviation. Stars, significance determined by student T-test (P<0.01). (C) A diagram depicting several stages of LRP emergence. (D) Percent distribution of LRP stages, recorded at root bend at indicated time points following gravistimulation at 3 dpg. n≧20 seedlings per set. […]
# GUS solution (100 mM sodium phosphate buffer, pH 7.0, 10 mM EDTA, 0.5 mM each potassium ferrocyanide and potassium ferricyanide, 1.24 mM X-Gluc, and 0.1% Triton X-100) was vacuum-infiltrated into plant tissue for five minutes, then removed from vacuum and incubated in 37° C. for 3 to 12 hrs, followed by a series of ethanol washes. […] LRP were quantified by counting both the emerged LR and unemerged LR, as determined by DRS::GUS staining of the primordia, under a dissecting microscope (1.2× magnification). LRP stages were determined by examining ethanol-cleared, GUS-stained tissue using 40× water lens.
# [3] = test system: Nicotiana benthamiana leaves; assay: Transient expression via Agrobacteria-infiltration, extent of viral movement; type: in vivo; conditions: transient expression in Nicotiana benthamiana leaves
# Description: (a) Schematics of PDLP5-m5, PDLP5-C, and PDLP5-2C mutants as created by overlapping PCR. (b) Transient expression of mutants in Nicotiana benthamiana leaves.
# We also created mutants altering just two cysteines (“CC”, residues 288 and 289 of the C-terminal tail region) or a single cysteine (“C”, residue 298 of the C-terminal tail region) residues to A1a. The phenotypes of these partial mutants, as well as the PDLP5-OX, pldp5-1 and PDLP5-m5, were tested in transient expression in Nicotiana benthamiana leaves via Agrobacteria-infiltration, targeting the extent of viral movement for comparison.
# LAX3pro:LAX3-YFP = LAX3pro:LAX3-YFP signal in overlying Co cells after gravistimulation; type: in vivo, Arabidopsis thaliana
# Description: (A) Seedlings were gravistimulated at 3 days post germination and the LAX3::LAX3-YFP signal was monitored under a confocal microscope from 14 hours post-gravitropic induction through 36 hours post-gravitropic induction at the root bend. Images were selected to show the earliest detection time points. […] Scale bars, 50 μm. (B) Quantification of relative occurrence of LAX3-YFP signal in Co at 22 hours post-gravitropic induction (hpg) based on the data presented in Table 3.
# We monitored LAX3-YFP signal accumulation in overlying Co using the gravitropic assay.
# Arabidopsis seedlings expressing LAX3::LAX3:YFP in the desired background were grown as described above for three days, followed by gravistimulation by turning the plates 90° . The cortical cell fluorescence at the root bend was monitored at different time points using a Zeiss LSM 780 confocal upright light microscope using a W Plan-Apochromat 20×/1.0 DIC M27 75 mm objective and the […] excitation line of an argon laser with 520-550 nm band pass emission filter. Images are presented as 3-D composites of 30 μm-thick z-stacks.
# Arabidopsis thaliana = assay: Vegetative growth, flowering and seed yield of plants; type: in vivo; conditions: 22-20° C., 16/8 hours light/darkness
# Description: Wild type (WT) plants, plants overexpressing […]), and plants with a severe knock down of […] used as comparisons. (a) Whole plants at 10, 14, and 18 days post germination (dpg). Plants were grown at 22-20° C. with 50% humidity and with 16/8 hours light/darkness. (b) Leaves at 3 weeks post germination. Plants were grown at 24-22° C. with 70% humidity and with 16/8 hours light/darkness. […] Wild type (WT) plants, plants overexpressing PDLP5 (OX), and plants with a severe knock down of PDLP5 (KO) were used as comparisons. […] Seeds were germinated on plates, were transferred to soil after 1 week, and plants were grown at 22-20° C. with 16/8 hours light/darkness. […] Wild type (WT) plants and plants overexpressing […]) were used as comparisons. Plants were grown at 24-22° C. with 70% humidity and with 16/8 hours light/darkness. […] The sequence of the PCR product was confirmed followed by transformation of Top10 E. coli competent cells. […] Agrobacteria were transformed with the […]5 clone.
# [4] = 22 hours post-gravitropic stimulation
molecule,measurement,setting,value
B1,total SA compared with the wild-type control,[1],15 fold
same,LRP emergence,[2],none had yet emerged
same,extent of viral movement,[3],delay in viral movement
same,"LAX3pro:LAX3-YFP cortical signal, ratio PDLP5:WT",LAX3pro:LAX3-YFP; 24 hpg,0.42 and 0.68
same,"LAX3pro:LAX3-YFP cortical signal, seedlings",LAX3pro:LAX3-YFP; 24 hpg,33%
same,"LAX3pro:LAX3-YFP cortical signal, ratio PDLP5:WT","LAX3pro:LAX3-YFP; 24 hpg, mean",0.55
same,"LAX3pro:LAX3-YFP cortical signal, ratio PDLP5:WT",LAX3pro:LAX3-YFP; 36 hpg,1
same,ratio to WT of seedlings expressing LAX3pro:LAX3-YFP in Co cells,LAX3pro:LAX3-YFP; [4],0
same,seedlings expressing LAX3pro:LAX3-YFP in overlaying Co cells,LAX3pro:LAX3-YFP; [4],no fluorescent signals evident
same,rosette diameter,Arabidopsis thaliana,reduced rosette diameter
